Data from patent US20170320955A1 (IGM BIOSCIENCES A S, published 2017).

Tests used:
Test in all cases: ELISA as in Example 2, receptor coated on the plate
[1] = target: T1, Soluble DcR1 protein (R&D Systems Catalog #630-TR-100/CF) (UniProt O14798 26-221, limits assumed)
T1 construct: Coated on the ELISA plate at 2 ug/mL; also called TRAILR3; decoy receptor DcR1
T1 sequence (looked up): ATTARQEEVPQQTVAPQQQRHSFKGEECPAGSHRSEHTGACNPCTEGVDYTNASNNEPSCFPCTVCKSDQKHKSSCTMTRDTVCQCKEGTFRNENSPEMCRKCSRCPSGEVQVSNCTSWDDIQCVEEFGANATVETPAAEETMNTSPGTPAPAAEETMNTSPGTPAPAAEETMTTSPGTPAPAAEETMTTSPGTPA
Experimental: (§1) DR4 or decoy receptors DcR1 and DcR2. Soluble DRS, DR4, DcR1, or DcR2 protein (R&D Systems Catalog #631-T2-100/CF, 347-DR-100/CF, 630-TR-100/CF, 633-TR-100 respectively) were coated on an ELISA plate at 2 μg/mL in 100 mM NaHCO₃ pH 9.5 overnight at 4° C. A solution of 2% BSA in PBS was used for the blocking and antibody incubation steps. The plate was blocked for 1 hour at room temperature, then incubated with mouse anti-human DRS mAb (Acris Antibodies Catalog #AM31206AF-N) for 1 hour at room temperature. anti-DRS mAb was 3-fold serially diluted to concentrations ranging from 1 to 200 ng/mL. After washing 3 times with PBS plus 0.05% Tween-20, the plate was incubated with rat anti-mouse kappa-HRP (Southern Biotech Catalog #1180-05) for 1 hour at room temperature, protected from light. After washing 3 times with PBS plus 0.05% Tween-20, the plate was incubated with TMB substrate (BD Biosciences Catalog #555214) for 20 minutes at room temperature. The reaction was stopped with 1M H₂SO₄ and absorbance at 450nm was determined using a microtiter plate reader.
(§2) Biotech Catalog #9180-05) or 1:6000 Mouse Anti-Human Kappa-HRP (Southern Biotech Catalog #9230-05) was used for detection.

[2] = target: T2, Soluble DcR2 protein (R&D Systems Catalog #633-TR-100) (UniProt Q9UBN6 56-211, limits assumed)
T2 construct: Coated on the ELISA plate at 2 ug/mL; also called TRAILR4; decoy receptor DcR2
T2 sequence (looked up): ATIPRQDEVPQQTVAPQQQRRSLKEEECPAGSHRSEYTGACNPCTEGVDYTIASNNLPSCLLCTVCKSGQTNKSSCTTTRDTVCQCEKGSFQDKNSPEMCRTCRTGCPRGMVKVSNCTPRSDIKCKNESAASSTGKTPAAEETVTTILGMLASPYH
Experimental: as §1, §2

[3] = target: T3, Soluble DR4 protein (R&D Systems Catalog #347-DR-100/CF) (human, UniProt O00220 24-239, limits assumed)
T3 construct: Coated on the ELISA plate at 2 ug/mL; also called TRAILR1; Apo2
T3 sequence (looked up): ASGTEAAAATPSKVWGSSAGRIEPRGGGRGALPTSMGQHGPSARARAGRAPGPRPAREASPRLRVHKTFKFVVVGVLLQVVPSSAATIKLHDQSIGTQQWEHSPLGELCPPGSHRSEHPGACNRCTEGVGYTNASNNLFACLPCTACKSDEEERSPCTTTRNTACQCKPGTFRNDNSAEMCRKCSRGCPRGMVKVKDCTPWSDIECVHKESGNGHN
Experimental: as §1, §2

Measured: binding result

B1: Anti-DR5 mAb #2, IgG version (antibody, V domains shown)
VH: QVQLQESGPGLVKPSQTLSLTCTVSGGSISSGDYFWSWIRQLPGKGLECIGHIHNSGTTYYNPSLKSRVTISVDTSKKQFSLRLSSVTAADTAVYYCARDRGGDYYYGMDVWGQGTTVTVSS
VL: EIVLTQSPGTLSLSPGERATLSCRASQGISRSYLAWYQQKPGQAPSLLIYGASSRATGIPDRFSGSGSGTDFTLTISRLEPEDFAVYYCQQFGSSPWTFGQGTKVEIK
notes: Human IgG; variable domains put into proprietary IgG vectors (Aragen Biosciences, Lake Pharma); also called DR5 MAb IgG #2; Anti-DRS mAb #2 IgG
no binding: [1] | [2] | [3]

B2: Anti-DR5 mAb #2, pentameric IgM-J chain version (antibody, V domains shown)
VH: QVQLQESGPGLVKPSQTLSLTCTVSGGSISSGDYFWSWIRQLPGKGLECIGHIHNSGTTYYNPSLKSRVTISVDTSKKQFSLRLSSVTAADTAVYYCARDRGGDYYYGMDVWGQGTTVTVSS
VL: EIVLTQSPGTLSLSPGERATLSCRASQGISRSYLAWYQQKPGQAPSLLIYGASSRATGIPDRFSGSGSGTDFTLTISRLEPEDFAVYYCQQFGSSPWTFGQGTKVEIK
notes: Pentameric IgM with J chain; variable domains put into proprietary IgM vectors; also called DR5 MAb IgM #2; IgM Anti-DR5 mAb #2
no binding: [1] | [2] | [3]
